# In PMC6054995:
# Target: Marchantia polymorpha 3-phosphoglycerate dehydrogenase, recombinant, without the transit peptide (Marchantia polymorpha)
# Test: SEC; HiPrep 16/60 Sephacryl S-300 HR, 0.5 mL/min, 100 mM sodium phosphate buffer (pH 9.0); mass estimated from a standard curve of thyroglobulin, apoferritin, beta-amylase, albumin and carbonic anhydrase
substance,measurement,value
"Marchantia polymorpha 3-phosphoglycerate dehydrogenase, recombinant, without the transit peptide (enzyme)",stoichiometry N,4
